Reference: the supplement of paper PMC9170038

System: MS2 coat protein
Experiment: apparent KD of MS2 coat protein; designed switch direction (-1 OFF switch, 1 ON switch): -1; higher = weaker reporter binding
How it was run: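 Designed RNA switches sharing common flanks were transcribed on Illumina chips by stalled E. coli RNA polymerase. They were titrated with SNAP-549-labelled MS2 coat protein, from 0.7 or 1.5 nM doubling to 3 µM, in Tris-HCl pH 7.5 buffer with KCl, MgCl2, BSA, DTT, tRNA and Tween-20. Titrations ran without input, with 200 uM small-molecule ligand, or with an oligonucleotide input. The apparent KD of each design is the median over its clusters, after curve-fitting of normalised cluster fluorescence.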

[1] = input ligand: microRNA oligo, concentration not stated
[2] = Eterna round: R95, input ligand: FMN 200 uM
[3] = Eterna round: R95, input ligand: microRNA oligo, concentration not stated
[4] = Eterna round: R95, input ligand: none

With “AAUGCCAGUGUCAGGAUAUCCGGAGGGAAACCUCCGGAGAAGGGACAUGAGGAUCACCCAUGUAUGUAACCUGC [AK-MS2ROC-r4-Bmoexclusion4-7] (Eterna round: R97, puzzle: Brourd's mod of Exclusion 4)” the “apparent KD of MS2 coat protein” value (input ligand: FMN 200 uM) was 35.2 nM and the “apparent KD of MS2 coat protein” value (input ligand: none) was 23.6 nM.
“AAUGGUAAAGUCAGGAUAUACGUAAAUCGUUCUAGGUAGAAGGGACAUGAGGAUCACCCAUGUAUGAUAGUAAA [Ex4 #32] (Eterna round: R97, puzzle: Brourd's mod of Exclusion 4)” was tested, and the “apparent KD of MS2 coat protein” value (input ligand: FMN 200 uM) was 31.9 nM and the “apparent KD of MS2 coat protein” value (input ligand: none) was 35.4 nM.
With “AAUGGUAAAGUCAGGAUAUACGUACGUCGUUCUAGGUAGAAGGGACAUGAGGAUCACCCAUGUAUGAUAGUAAA [Ex4 #34] (Eterna round: R97, puzzle: Brourd's mod of Exclusion 4)” the “apparent KD of MS2 coat protein” value (input ligand: FMN 200 uM) was 24.1 nM and the “apparent KD of MS2 coat protein” value (input ligand: none) was 32.9 nM.
In the case of “AAUGUGUGAGGAUAUUAAUUGUAAUUGAAUAGAAUUAUGAUUGAGAAGGCACAUGAGGAUCACCCAUGUUCCAA [JR_Ex4_Sub082] (Eterna round: R97, puzzle: Exclusion 4)”, the “apparent KD of MS2 coat protein” value (input ligand: FMN 200 uM) is reported as 187 nM and the “apparent KD of MS2 coat protein” value (input ligand: none) is reported as 31.2 nM.
“AAUGUUUGAUACCUUUAAUACAUGAGGAUCACCCAUGUUAUCGAGGAUAUGUAGAUGAAAUGAGAACAGAAGGCGAAGUAAGAG [JR_ExcNG3_Sub098] (Eterna round: R96, puzzle: Exclusion NG 3)” was tested, and the “apparent KD of MS2 coat protein” value (input ligand: FMN 200 uM) was 19.5 nM, the “apparent KD of MS2 coat protein” value [1] was 9.73 nM and the “apparent KD of MS2 coat protein” value (input ligand: none) was 24.4 nM.
For “AAUUAACAAGCAGGAUCCUACAUGAGGAUCACCCAUGUGCUCGUCUUAUAAAGUACUAUCACGAAAGUGAUAGUACA [Mat - Sensor v3 - turn-off var 1 - Eli Mod - D74] (puzzle: Sensor v3, turn-off variant 1)”, the “apparent KD of MS2 coat protein” value [2] was 224 nM, the “apparent KD of MS2 coat protein” value [3] was 566 nM and the “apparent KD of MS2 coat protein” value [4] was 197 nM.
In the case of “AAUUAACAAGCGAGAUCCUACAUGAGGAUCACCCAUGUGCUCGUCUUAUAAAGUACUAUCACGAAAGUGAUAGUACA [Mat - Sensor v3 - turn-off var 1 - Eli Mod - D64] (puzzle: Sensor v3, turn-off variant 1)”, the “apparent KD of MS2 coat protein” value [2] is reported as 21.8 nM, the “apparent KD of MS2 coat protein” value [3] is reported as 215 nM and the “apparent KD of MS2 coat protein” value [4] is reported as 19.5 nM.
With “AAUUAACAUCAGGAUAUGACUAGCCUCGGCUAGUCAGAAGGGAUGACAUGAGGAUCACCCAUGUGAUCAAUUAA [E6/2-A2] (Eterna round: R97, puzzle: Exclusion 6)” the “apparent KD of MS2 coat protein” value (input ligand: FMN 200 uM) was 392 nM and the “apparent KD of MS2 coat protein” value (input ligand: none) was 108 nM.
In the case of “AAUUAGCAAGCGAGAUCCCACAUGAGGAUCACCCAUGUGCUCGUCUUAUAAGGUACUGUGACAAAAGUCACGGUACC [Mat - Sensor, turn-off var - Eli Mod - D18] (Eterna round: R97, puzzle: Sensor, turn-off variant 1)”, the “apparent KD of MS2 coat protein” value (input ligand: FMN 200 uM) is reported as 17.9 nM and the “apparent KD of MS2 coat protein” value (input ligand: none) is reported as 18.1 nM.
With “AAUUAGUGAGGAUAUACUAACAGUGAUAGUAGAUAGUGGAUGUAGAAGGCACAUGAGGAUCACCCAUGUUAUAA [EX4 #51] (Eterna round: R97, puzzle: Exclusion 4)” the “apparent KD of MS2 coat protein” value (input ligand: FMN 200 uM) was 39.1 nM and the “apparent KD of MS2 coat protein” value (input ligand: none) was 33.5 nM.
With “AAUUAUUAUUGAGGAUAUCGUAGUGAAACACUACGAGAAGGCGGUAUAAACAUGAGGAUCACCCAUGUGAGCCUGAUGCUUAUG [Ex NG1 #44] (Eterna round: R96, puzzle: Exclusion NG 1)” the “apparent KD of MS2 coat protein” value [1] was 20.6 nM.
For “AAUUAUUAUUGAGGAUAUCGUAUUGAAACAAUACGAGAAGGCGGAAUAAACAUGAGGAUCACCCAUGUGAGCCUGAUGCUUAUG [Ex NG1 #43] (Eterna round: R96, puzzle: Exclusion NG 1)”, the “apparent KD of MS2 coat protein” value [1] was 21.1 nM.
“AAUUAUUGAUGAGGAUAUUGUGGUGAAACACGACAAGAAGGCAUUUUUCACAUGAGGAUCACCCAUGUGAGCCUUGUGCAUAUA [Ex NG1 #62] (Eterna round: R96, puzzle: Exclusion NG 1)” was tested, and the “apparent KD of MS2 coat protein” value (input ligand: FMN 200 uM) was 17.3 nM, the “apparent KD of MS2 coat protein” value [1] was 11.5 nM and the “apparent KD of MS2 coat protein” value (input ligand: none) was 15.2 nM.
“AAUUCACAUGAGGAUCACCCAUGUCAGGAUAUGGUGACGCGGGUUUCGGUGCGUGUUGCCAGAAGGGACGGCUG (puzzle: Exclusion 1)” was tested, and the “apparent KD of MS2 coat protein” value [3] was 92.4 nM.
With “AAUUCACAUGAGGAUCACCCAUGUGAGGAUAUGGUUUCGCUGGCCGUAGCCAGUGGAACCAGAAGGCGCAUGAU [Mat - Exclusion 1 - JL Mod - D11] (Eterna round: R97, puzzle: Exclusion 1)” the “apparent KD of MS2 coat protein” value (input ligand: FMN 200 uM) was 30.7 nM and the “apparent KD of MS2 coat protein” value (input ligand: none) was 28.9 nM.
For “AAUUUACAUGAGGAUCACCCAUGUGAGGAUAUAUGCAAACAAUUUUUAUUAAUAAAGCAUAGAAGGCGCGUGAU [JR_Exc1_Sub043] (Eterna round: R97, puzzle: Exclusion 1)”, the “apparent KD of MS2 coat protein” value (input ligand: FMN 200 uM) was 90.5 nM and the “apparent KD of MS2 coat protein” value (input ligand: none) was 65.7 nM.
For “ACAAAGGUAGGAUAUCGGACUAUGGACAUGAGGAUCACCCAUGUGCGUCCAAUGCCCAACCGAGAAGGACCAACAG [Isindiedbe] (puzzle: Exclusion 5)”, the “apparent KD of MS2 coat protein” value [3] was 43.7 nM.
With “ACAACAUGAGGAUCACCCAUGUGUGUUGUCCCAUGUGUGUAUAAGGAUAUAUGAAGGAAGGAGGAAUAGAAGGUAUAGAAGGAG [Am I even doing this right] (Eterna round: R96, puzzle: Exclusion NG 3)” the “apparent KD of MS2 coat protein” value (input ligand: FMN 200 uM) was 84.1 nM, the “apparent KD of MS2 coat protein” value [1] was 9.25 nM and the “apparent KD of MS2 coat protein” value (input ligand: none) was 1200 nM.
In the case of “ACAACCGGAGGAUAUACGUAUUCAUCACUCAACGCGGAACGACAUGAGGAUCACCCAUGUAGAAGGCCGAGAGU [EX2 B.24] (Eterna round: R97, puzzle: Exclusion 2)”, the “apparent KD of MS2 coat protein” value (input ligand: FMN 200 uM) is reported as 13.5 nM and the “apparent KD of MS2 coat protein” value (input ligand: none) is reported as 16 nM.
In the case of “ACAACUGUUCCCAAGCUUUACAUGAGGAUCACCCAUGUUCGUCAAGAUUUGUACCAUCUAACGUAUGGCUCAAGUAC [Eternabot (L1) Solution 48] (Eterna round: R97, puzzle: Sensor, turn-off variant 1)”, the “apparent KD of MS2 coat protein” value (input ligand: FMN 200 uM) is reported as 23 nM and the “apparent KD of MS2 coat protein” value (input ligand: none) is reported as 24.6 nM.
In the case of “ACAAGAUCGGAAGGAUAUUGUACAUGAGGAUCACCCAUGUAAUAAAUGAGGAUCACGGAUGUAGACAAGAAGGUCCGGAUAAGA [Ostracism 4 - Jieux - Exclusion NG 2] (Eterna round: R96, puzzle: Exclusion NG 2)”, the “apparent KD of MS2 coat protein” value (input ligand: FMN 200 uM) is reported as 45.6 nM, the “apparent KD of MS2 coat protein” value [1] is reported as 30.8 nM and the “apparent KD of MS2 coat protein” value (input ligand: none) is reported as 36.2 nM.
With “ACAAGCUCUGUGGGUGGUGACAUGAGGAUCACCCAUGUUUUGCUCGUCUUGUGCCGGGCCCGGCGCCCGGGCCCGGC [-40.5, -69.4, A 8%] (Eterna round: R97, puzzle: Sensor, turn-off variant 1)” the “apparent KD of MS2 coat protein” value (input ligand: FMN 200 uM) was 261 nM and the “apparent KD of MS2 coat protein” value (input ligand: none) was 715 nM.
For “ACAAGCUUAAAAGGUGAUAACAUGAGGAUCACCCAUGUUCGUCUUAUAAAGAUCCUAUGUCGAAAGACAUAGGAUCA [Sensor 3, v1 - 68] (puzzle: Sensor v3, turn-off variant 1)”, the “apparent KD of MS2 coat protein” value [2] was 18.8 nM, the “apparent KD of MS2 coat protein” value [3] was 39.4 nM and the “apparent KD of MS2 coat protein” value [4] was 20.9 nM.
For “ACAAGCUUGUAAUGAUAGAACAUGAGGAUCACCCAUGUAAAUGGAAGAACCAAUUAGAUAAGAUAAACUCGUCUUAU [JR_STOV1_Sub002] (Eterna round: R97, puzzle: Sensor, turn-off variant 1)”, the “apparent KD of MS2 coat protein” value (input ligand: FMN 200 uM) was 59.1 nM and the “apparent KD of MS2 coat protein” value (input ligand: none) was 69.5 nM.
In the case of “ACAAGCUUUAGGCGUGUGAACAUGAGGAUCACCCAUGUAAAGUAGGUUAGGAGGUCUGUAAGGGAUGCUCGUCUUAU [JR_SWV3TOV1_Sub090] (puzzle: Sensor v3, turn-off variant 1)”, the “apparent KD of MS2 coat protein” value [2] is reported as 89.4 nM, the “apparent KD of MS2 coat protein” value [3] is reported as 45.5 nM and the “apparent KD of MS2 coat protein” value [4] is reported as 113 nM.
